Legend:
[1] = substrate: NCCO; assay: kinetic analysis of recombinant enzyme (substrate saturation); type: biochemical, P. falciparum; settings: Etn varied, ATP constant, pH 7.8
Method: (§1) A continuous spectrophotometric 96-well plate assay was established for CK and EK activity based on an assay described. […] The reaction was initiated by addition of enzyme or substrate, as appropriate, and the rate of reaction was monitored by following the decrease in absorbance at 341 nm for 10 min at room temperature using a Thermo Multiska spectrophotometer. Experiments were carried out to ensure that coupling enzymes were not rate-limiting under any of the conditions used and control experiments lacking substrates and/or enzyme were carried out to correct for any background rate.
(§2) One substrate was held constant at the concentration specified above while the second substrate was varied. Any ATPase activity was controlled for and subtracted from the rates (PfEK only). Curves were plotted and Km and Vmax values estimated using Grafit 5 (Erithacus Software Ltd).

[2] = substrate: Nc1ncnc2c1ncn2[C@@H]1O[C@H](COP(=O)(O)OP(=O)(O)OP(=O)(O)O)[C@@H](O)[C@H]1O; assay: as above; type: biochemical, P. falciparum; settings: ATP varied, pH 7.8
Method: as §1, §2

[3] = substrate: C[N+](C)(C)CCO; assay: purified protein, by the assay type; settings: other: PfCK, Cho varied, ATP constant; pH 7.8

Protein	Km ([1]; other: PfEK) [µM]	Vmax ([1]; other: PfEK) [µmol/min/mg]	kcat ([1]; other: PfEK) [s⁻¹]	kcat/Km ([1]; other: PfEK) [M⁻¹ s⁻¹]	Km ([2]; other: PfEK) [µM]	Km [3] [µM]	Vmax [3] [µmol/min/mg]	kcat [3] [s⁻¹]	kcat/Km [3] [M⁻¹ s⁻¹]	Km ([1]; other: PfCK) [µM]	Vmax ([1]; other: PfCK) [µmol/min/mg]	kcat ([1]; other: PfCK) [s⁻¹]	kcat/Km ([1]; other: PfCK) [M⁻¹ s⁻¹]	Km ([2]; other: PfCK) [µM]
PfEK (Plasmodium falciparum 3D7) (protein) EYQLREIDESEKEITQQRKKNSVTTKNFDNLSNSNSQITEMTNEQGVIPLREKDLTINVGDNRNLKVEEFMTNFISNVFENKNALFLYCKYVLLFYGKELLNENNVESLNFEIIKGGITNILVKVEDNIHQNKYLIRLYGPKTSEIINREREKLISNILCDKNISKKIYVFFPNGRIEEFKDGYALSREDIKNKDFQKEIAENLRILHDIQLDDTIYKKLQALQNIQGNRSSFLWSTLWKYFNTLKEERQKKYSFNPKAYILKLIDFDMLESIITEIQELCCKKNSPVVLCHCDLLSSNIIKTEGSSISFIDFEYSCPMERAYDIANHFNEYAGFNCEWDLTPNRSEEYHFIKHYLKTDDEQLINQLIDEIQPFYVCSHIVWGLWALLQGLHSVIDFDFINYGMTRLTAAFSVKFRSKL	80 ± 20	0.03	0.025	310	70 ± 30									
PfCK (Plasmodium falciparum 3D7) (protein, made in house) MESKICDPIGLDKNKFRKVEEENEENSKIVENGQMTYNDDLEMFTTIQLNQEIDIRKNPFPLHMINQKNDIPLCAQEFSKLTDPLYIKKICLEKVHDWSRCNEDDVCVNQILSGLTNQLFEVSIKEDTAIEYRITRRHVLFRIYGKDVDALYNPLSEFEVYKTMSKYRIAPLLLNTFDGGRIEEWLYGDPLSIDDLKNKSILVGIANVLGKFHTLSRKRHLPEHWDKTPCVFKMMDRWRLAVSNYKNLDKVTLDINKYIQESHKFLKFIKIYTQIENIANDIVFCHNDLQENNIMNTNKCLRLIDFEYSGYNFLSADIANFFIETTIDYSYNAYPFFIINKKNYISYESRILFVTTYLSKYLDDSTAASDQDIIDQFLEAIEVQALGLHLIWAFWSIIRGYQTKSYNEFDFFLYAKERLKMYDEQKQYLMSKNIIKDYDD						210 ± 30	3.3	2.9	13800	3300 ± 300	1.7	1.5	450	130 ± 10

— paper PMC5018819 (Scientific Reports, 2016)
